Source: patent publication US20200102553A1

Target: membrane-tethered Cre fusion: signal peptide, flag tag, CD8 transmembrane domain, GzB cleavage site, Cre recombinase (UniProt P01732)
Experiment: cell-based or functional assay

reporter inversion by released Cre, qPCR: 3 fold
Substance: Granzyme B (GzB) (from UniProt P10144 21-247) (enzyme)
